Measured values: paper PMC2528291 (Journal of molecular biology, 2001)
Like-named read-outs stand apart in the source and are kept apart here.

Key:
Experiment in all cases: SEC
[1] = target: flagellin (FliC) of S. typhimurium SJW1103 (S. typhimurium (endogenous in SJW1103)) (UniProt P06179)
[2] = target: the molecule itself
[3] = target: the molecule itself; remark: listed apart in the source

Chain of flagellin (FliC) of S. typhimurium SJW1103 (S. typhimurium (endogenous in SJW1103)) (P06179 whole entry): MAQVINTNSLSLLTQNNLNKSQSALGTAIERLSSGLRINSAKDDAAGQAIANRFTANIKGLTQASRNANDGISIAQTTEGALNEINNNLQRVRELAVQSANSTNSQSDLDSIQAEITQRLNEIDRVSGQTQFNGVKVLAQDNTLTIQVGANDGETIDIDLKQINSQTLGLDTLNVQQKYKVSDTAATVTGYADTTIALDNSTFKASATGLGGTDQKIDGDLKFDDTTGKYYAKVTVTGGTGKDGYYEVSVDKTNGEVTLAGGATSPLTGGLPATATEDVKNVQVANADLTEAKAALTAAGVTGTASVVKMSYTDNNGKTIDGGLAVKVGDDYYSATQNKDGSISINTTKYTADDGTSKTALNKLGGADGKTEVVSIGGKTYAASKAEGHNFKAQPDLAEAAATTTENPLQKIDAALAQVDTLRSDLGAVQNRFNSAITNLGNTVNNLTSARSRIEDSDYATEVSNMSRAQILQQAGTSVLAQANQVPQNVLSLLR

Molecule: His6-FliS (from pET-FliS) (from UniProt P26609 1-135) (natural protein)
- stoichiometry N (FliS per FliC) [1]: 2

B1: FliS (native, cytosolic, of S. typhimurium SJW1103) (natural protein, S. typhimurium (endogenous in SJW1103), UniProt P26609 1-135, looked up)
chain: MYTASGIKAYAQVSVESAVMSASPHQLIEMLFDGANSALVRARLFLEQGDVVAKGEALSKAINIIDNGLKAGLDQEKGGEIATNLSELYDYMIRRLLQANLRNDAQAIEEVEGLLSNIAEAWKQISPKASFQESR
- stoichiometry N [2]: 2

B2: His6-FliS (from pET-FliS) (natural protein, S. typhimurium, UniProt P26609 1-135, looked up)
chain: B1 chain
modifications: [35S]methionine label (in the affinity blots only)
- stoichiometry N [3]: 2
